For assay [1], the target named is T1, recombinant TdfH (Neisseria gonorrhoeae TonB-dependent transporter, NGO0952) (Neisseria gonorrhoeae, UniProt A0ACH0F8A9 1-922).
T1 construct: TdfH, Neisseria gonorrhoeae, locus NGO0952; full-length tdfH gene, codon-optimised for E. coli; The tag of pHIS2 is not described: the N-terminal 10x His tag and TEV site are told of the modified pET20b vector, which was not the source of the protein used; also called recombinantly produced TdfH; purified TdfH; not shown: His tag (from the Ni-NTA purification)
T1 sequence: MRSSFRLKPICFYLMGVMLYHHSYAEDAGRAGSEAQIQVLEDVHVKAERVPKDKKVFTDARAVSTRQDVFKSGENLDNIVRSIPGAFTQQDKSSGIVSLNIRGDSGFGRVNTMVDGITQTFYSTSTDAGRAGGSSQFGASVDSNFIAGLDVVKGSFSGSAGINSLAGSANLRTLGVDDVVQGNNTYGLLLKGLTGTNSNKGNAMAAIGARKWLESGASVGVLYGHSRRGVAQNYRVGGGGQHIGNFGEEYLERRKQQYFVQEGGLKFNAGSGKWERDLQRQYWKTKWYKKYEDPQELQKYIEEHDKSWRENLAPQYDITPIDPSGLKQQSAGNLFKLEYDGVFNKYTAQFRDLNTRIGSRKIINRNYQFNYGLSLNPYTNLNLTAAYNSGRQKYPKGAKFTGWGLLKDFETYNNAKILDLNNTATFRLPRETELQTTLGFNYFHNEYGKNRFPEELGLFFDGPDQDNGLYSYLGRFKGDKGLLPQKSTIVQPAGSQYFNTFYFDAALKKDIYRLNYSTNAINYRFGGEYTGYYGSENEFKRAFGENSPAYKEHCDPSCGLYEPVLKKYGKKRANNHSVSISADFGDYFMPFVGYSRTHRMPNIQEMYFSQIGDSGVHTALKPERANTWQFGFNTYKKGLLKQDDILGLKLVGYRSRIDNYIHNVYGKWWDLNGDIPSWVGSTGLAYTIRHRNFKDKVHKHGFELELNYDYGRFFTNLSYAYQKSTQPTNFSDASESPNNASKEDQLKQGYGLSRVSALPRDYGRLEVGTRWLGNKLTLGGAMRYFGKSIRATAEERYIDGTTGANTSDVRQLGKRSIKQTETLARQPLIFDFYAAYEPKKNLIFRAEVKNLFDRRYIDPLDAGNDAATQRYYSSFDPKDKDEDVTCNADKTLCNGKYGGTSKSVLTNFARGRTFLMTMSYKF
The experiment in a line: ITC; Nano ITC, 25°C, 1x PBS with 0.05% DDM; TdfH (300 μl, 20 μM) in the cell, CP sample (200 μM) in 20 injections of 2.5 μl; fitted with NanoAnalyze to a two-state (multisite) model, TKO to a single-site model. The following applies: both partners purified. Background: In ITC the heat of successive injections is recorded.

A further assay deals with T2, TdfH (Neisseria gonorrhoeae, UniProt A0ACH0F8A9 1-922).
T2 construct: TdfH, TonB-dependent transporter of Neisseria gonorrhoeae, locus NGO0952; full-length tdfH gene, codon optimised for E. coli; In 0.05% DDM; also called recombinant TdfH; NGO0952
The experiment in a line: ITC; CP sample (200 uM) injected into TdfH (300 ul at 20 uM) in the cell, 20 injections of 2.5 ul every 300 s, 25 C, 1x PBS with 0.05% DDM; fitted with NanoAnalyze (multi-site model; independent model for TKO). The following applies: both partners purified.

As usually defined, the Kd is the equilibrium constant for the complex coming apart. For orientation: stoichiometry N means the number of molecules, sites or subunits per partner or assembly.

B1: total knockout human calprotectin (both Zn binding sites mutated) (complex)
chain 1: MLTELEKALNSIIDVYNKYSLIKGNFNAVYRDDLKKLLETECPQYIRKKGADVWFKELDINTDGAVNFQEFLILVIKMGVAANKKSNEESHKE
chain 2: MTCKMSQLERNIETIINTFNQYSVKLGHPSTLNQGEFKELVRKDLQNFLKKENKNEKVIEHIMEDLDTNADKQLSFEEFIMLMARLTWASNEKMNEGDEGPGHHHKPGLGEGTP
modifications: Positions are not printed here. They follow the cited calprotectin site-knockout constructs and fit the printed counts (4 His-Asn in site 1; 3 His-Asn plus Asp-Ser in site 2). Cys kept as wild type …
Turning to B1, the Kd in assay [1] turned out to be 13 µM.

B2: total knockout hCP (complex)
chain 1: MLTELEKALNSIIDVYNKYSLIKGNFNAVYRDDLKKLLETECPQYIRKKGADVWFKELDINTDGAVNFQEFLILVIKMGVAANKKSNEESHKE
chain 2: MTCKMSQLERNIETIINTFNQYSVKLGHPSTLNQGEFKELVRKDLQNFLKKENKNEKVIEHIMEDLDTNADKQLSFEEFIMLMARLTWASNEKMNEGDEGPGHHHKPGLGEGTP
modifications: Same construct as m7. Positions come from the cited constructs and are not printed here.
As for B2, the “stoichiometry N” value with TdfH is 0.67 ± 0.12.

Values taken from paper PMC7251212, “Molecular Insight into TdfH-Mediated Zinc Piracy from Human Calprotectin by Neisseria gonorrhoeae” (mBio, 2020).
